Bridges are numbered along the chain shown (N, C = ends). Where no end group is shown, it is not given here. [ ]: non-standard residue; d: D form. The star is where a group is joined. FITC = O=C1OC2(c3ccc(O)cc3Oc3cc(O)ccc32)c2ccc(NC(=S)*)cc21; S5 = C=CCCC[C@](C)(N)C(=O)O
How the values were obtained:
[1] = target: T1, native EED in MLL-AF9 leukemia cells (UniProt Q921E6 2-441, limits assumed); assay: anti-FITC immunoprecipitation from peptide-treated MLL-AF9 cells, EED western
T1 construct: Endogenous intracellular protein
T1 sequence (Q921E6 2-441 limits assumed): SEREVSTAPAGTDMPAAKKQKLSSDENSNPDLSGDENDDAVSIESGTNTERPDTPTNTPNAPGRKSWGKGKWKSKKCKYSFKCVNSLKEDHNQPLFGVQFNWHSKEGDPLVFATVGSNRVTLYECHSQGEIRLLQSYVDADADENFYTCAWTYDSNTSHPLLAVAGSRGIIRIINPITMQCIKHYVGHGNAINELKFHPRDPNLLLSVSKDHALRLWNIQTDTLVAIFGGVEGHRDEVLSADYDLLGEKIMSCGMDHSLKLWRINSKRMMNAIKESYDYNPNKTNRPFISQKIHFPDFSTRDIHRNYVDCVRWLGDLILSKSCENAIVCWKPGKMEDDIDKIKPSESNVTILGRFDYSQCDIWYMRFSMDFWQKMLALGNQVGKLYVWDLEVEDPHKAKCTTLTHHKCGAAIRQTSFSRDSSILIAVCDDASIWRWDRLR
Description: To assess the interaction between SAH-EZH2 peptides and native EED, MLL-AF9 leukemia cells (2×10⁷) were cultured in 10 ml AF9 media using 10 cm dishes (BD Biosciences) and FITC-SAH-EZH2 peptides added to final concentration of 20 μM, followed by 8-12 h incubation. Treated cells were washed and trypsinized as above, lysed and then incubated with 50 μl of FITC-antibody (1 mg/ml) and 100 μl of protein G agarose (Roche) for 3 h. The amount of EED bound to FITC-SAH-EZH2 peptides was assessed by anti-EED western analysis (Millipore). To monitor for dissociation of native EED-EZH1/EZH2 complexes by SAH-EZH2, Sf21 cells were co-transfected with HA-EED and FLAG-EZH1 or FLAG-EZH2 baculovirus. EED-EZH1 and EED-EZH2 complexes were purified by anti-FLAG agarose (Sigma). EED-EZH1 and EED-EZH2 complexes (40 nM final concentration) were incubated with FITC-SAH-EZH2 peptides (final concentrations, 10, 3 and 1 μM) in 200 μl binding buffer for 2 h. After successive washes, the mixtures were incubated with anti-HA agarose (Sigma) and the level of HA-EED-bound EZH1 and EZH2 assessed by anti-HA western analysis.

purified EED (Example 6) = purified EED (Example 6) (UniProt O75530 1-441, limits assumed); assay: competitive fluorescence polarization: EED 200 nM, FITC-EZH2(42-68) 20 nM as competitor, 30 min
Chain of purified EED (Example 6) (O75530 whole entry): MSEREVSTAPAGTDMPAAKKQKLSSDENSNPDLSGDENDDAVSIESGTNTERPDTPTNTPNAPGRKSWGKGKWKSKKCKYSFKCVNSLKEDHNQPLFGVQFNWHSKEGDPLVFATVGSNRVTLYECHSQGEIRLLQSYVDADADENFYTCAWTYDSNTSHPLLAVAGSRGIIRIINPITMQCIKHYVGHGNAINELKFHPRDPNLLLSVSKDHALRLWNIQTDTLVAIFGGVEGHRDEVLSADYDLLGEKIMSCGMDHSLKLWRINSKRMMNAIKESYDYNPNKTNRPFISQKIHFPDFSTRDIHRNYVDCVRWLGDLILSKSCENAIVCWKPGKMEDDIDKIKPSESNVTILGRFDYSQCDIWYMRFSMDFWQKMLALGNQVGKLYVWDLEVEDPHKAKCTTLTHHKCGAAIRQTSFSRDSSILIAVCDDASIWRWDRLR
Description: The EED binding affinities of SAH-EZH2 and SAH-EZH2(42-68)AC were assessed by their capacities to displace FITC-labeled EZH2(42-68) peptide from EED. Serially diluted acetyl-SAH-EZH2 and the doubly stapled acetyl-SAH-EZH2(42-68)AC (dose range from 2.5 nM to 10 μIM) were incubated with purified EED (200 nM) and FITC-labeled EZH2(42-68) peptide (20 nM) for 30 min, followed by measurement of fluorescence polarization. N-terminal acetylated SAH-EZH2(42-68)AC displaced FITC-labeled EZH2(42-68) peptide from EED two times more efficiently than SAH-EZH2. The non-binding EZH2(47-64) construct was used as a negative control.

Row | fold displacement efficiency against SAH-EZH2 (purified EED (Example 6)) [fold] | Binder | binding result [1]
1 |  | {FITC}-FSSNR[S5]KIL[S5]RTQILNQQWKQRRIQPV (staple 6-10, Negative control peptide; also called SAH-EZH2MUT; SAH-EZH2(42-68)A-E54,59Q) [FITC-SAH-EZH2A(42-68)E54Q/E59Q] | no binding (tested: 20 µM peptide on cells)
2 | 2 | Ac-FSSNR[S5]KIL[S5]RT[S5]ILN[S5]EWKQRRIQPV (staple 6-10, 13-17, Doubly stapled peptide; also called doubly stapled SAH-EZH2 peptide) [acetyl-SAH-EZH2(42-68)AC] | 
